# B1: TPR t1 (parent)
# chain: GACCAAUCUGCCCUCAGAGCUCGAGAACAUCUUCGGAUGCAGAGGAGGCAGGCUUCGGUGGCGCGAUAGCGCCAACGUCCUCAACCUCCAAUGCAUCCCACCACAUGAUGAUGCCUGAAGAGCCUUGGUUUUUUG
# Variants of: B1
# Assay: polymerase ribozyme fitness, log enrichment relative to wild type (log ratio); higher = more active; in vitro selection for triplet polymerase activity
# How it was run: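 Genotype fitness is the logarithm of its enrichment divided by wild-type enrichment, using inverse-variance-weighted averages of replicates. That logarithm is base 2. Enrichment was measured by Illumina sequencing of input and output libraries from one triplicate in vitro selection round, with frozen incubation at −7 °C, on PCR-built, transcribed mutant libraries of each subunit of a heterodimeric triplet polymerase ribozyme, retaining genotypes with ≥10 input reads and ≥1 read per output.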
row,Variant,polymerase ribozyme fitness (log ratio)
1,A41C C82U G120A,0.0706
2,A41U A111G U112A A118U,-5.06
3,A41C C73A C86G C104A,-4.53
4,A41G G61C C94A A111U,-5.2
5,A41G U55G A74G,0.0435
6,A41C C64G,-6.49
7,A41U C49A A50U U55C G60U C115U,-5.28
8,A41G C73U,-0.342
9,A41G C49G U55A C73U A111C,-2.46
10,A41C A83U,-1.29
11,A41G C101A C115G,-2.97
12,A41C G63A G69U G93C C101A,-4.78
13,A41C C82A A111C,-2.14
14,A41C G117U U131A,-4.61
15,A41C G58A,-0.278
16,A41G A46C C88U C104U,-0.948
17,A41G G57C,-0.0815
18,A41G G57A C64U U130A,-1.6
19,A41C U78C C86A U106A,-1.09
20,A41G G45A A83C,-1.53
21,A41G A103C,-5.33

row,Variant,polymerase ribozyme fitness (log ratio)
1,A41C G47C C49U C86A,-2.65
2,A41G U78C C82A,-0.297
3,A41C G69U C79G U106A A121U U126G,-0.691
4,A41G C85A C124U G128C U133G,-3.58
5,A41U C72U A83U U87G U92A,-0.865
6,A41G G127C,-0.942
7,A41G C49G U55A A111C,-1.63
8,A41G U55A G58C G120U,-0.997
9,A41U A46U C72U A83C U109A,-7.09
10,A41C G51U,-3.29
11,A41G C56U C72G G113A G128U,-5.35
12,A41G C56G G69C U133G,-5.1
13,A41G U81A G117U,-5.27
14,A41G G48A C80U A95G C124A,0.0211
15,A41G G48U U112C,0.49
16,C40U U131A,-0.601
17,A41C G48A G60U G135U,-2.21
18,A41G C64U U81A,-2.25
19,A41U C70G,-5.5
20,A41U C70U,-2.3
21,A41C C89A G93U C101U G113U,-6.26

row,Variant,polymerase ribozyme fitness (log ratio)
1,A41C A46U C70U,-3.44
2,A41G G48U A121U,1.04
3,A41G G63A,-1.32
4,A41C G128C,-3.34
5,A41C G63U G93C G117A U132A,-4.71
6,A41U A84C,-1.99
7,A41C U78G,-1.18
8,A41G G45U C62A U78A U112G,-5.01
9,A41C C99U,-5.06
10,A41C U92A,-2.21
11,A41G G42U C73G C104A,-5.43
12,A41G A46C,-1.95
13,A41U A46C A91G U112A,-3.27
14,A41C C56U C114A A121G,-1.11
15,A41U A50U C53A,-3.22
16,A41C C80U,-1.79
17,A41C C73G,-1.33
18,A41U C72A G113C,-2.13
19,A41G C76U,-0.163
20,A41U A84G G122A,-3.29
21,A41G G47A C76A C101U,-3.57

row,Variant,polymerase ribozyme fitness (log ratio)
1,A41G A83U C99U C115A U131G,-4.22
2,A41U C49G,-2.03
3,A41U C49U,-2.03
4,A41C C85U,-2.37
5,A41U C53U U112G,-2.23
6,A41U A111U,-4.55
7,A41U C53G G77A,-1.35
8,A41C C98U,-2.48
9,A41C U59G C79U C124A,0.881
10,A41G C72A C98U C124U,0.986
11,A41C G61A G127A,-1.68
12,A41C C98U G117A,-5.3
13,A41G A43U C70U A91C,-3.27
14,A41U C53U G120U,-1.89
15,A41C C56G,-4.05
16,A41C C56U,-0.143
17,A41U C53G G113C,-3.41
18,A41C C82U C94G C97U,-6.09
19,A41U C70G G120U,-6.06
20,A41U C56U G110A,-2.95
